Results from patent publication US20180155451A1 (published 2018).

T1: FcγRIIb extracellular domain with C-terminal His tag (human, UniProt P31994 43-217)
T1 construct: extracellular domain; also called FcgRIIb; 2b; not shown: His tag at the C terminus
T1 sequence (looked up): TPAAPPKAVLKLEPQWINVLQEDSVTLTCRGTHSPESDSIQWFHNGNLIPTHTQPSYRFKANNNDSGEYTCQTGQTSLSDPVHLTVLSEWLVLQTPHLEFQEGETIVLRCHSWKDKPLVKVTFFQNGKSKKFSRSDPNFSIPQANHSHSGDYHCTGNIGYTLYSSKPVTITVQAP

T2: FcγRIIb, extracellular domain with C-terminal His tag (human, UniProt P31994 43-217)
T2 construct: extracellular domain; also called 2b; FcgRIIb; not shown: His tag at the C terminus
T2 sequence (looked up): T1 sequence (looked up)

T3: FcγRIIa H (FcγRIIa type H, His at position 131), extracellular domain with C-terminal His tag (human, UniProt P12318 34-217)
T3 construct: extracellular domain; also called 2aH; FcgRIIa H; not shown: His tag at the C terminus
T3 sequence (looked up): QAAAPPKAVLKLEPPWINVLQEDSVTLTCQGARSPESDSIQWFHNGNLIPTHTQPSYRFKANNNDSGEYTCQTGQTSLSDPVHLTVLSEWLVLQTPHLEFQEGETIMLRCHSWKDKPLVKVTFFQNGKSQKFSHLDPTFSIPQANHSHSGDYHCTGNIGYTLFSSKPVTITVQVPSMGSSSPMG

B1: GpH7-A5/GpH7-B3 variant D270_06M/GpL16-k0 (antibody, human IgG1, kappa)
heavy 1: not shown
heavy 2: not shown
light: DIVMTQSPLSLPVTPGEPASISCQASESLVHSNRNTYLHWYLQKPGQSPQLLIYKVSNRFSGVPDRFSGSGSGTDFTLKISRVEAEDVGVYYCSQNTHVPPTFGQGTKVEIERTVAAPSVFIFPPSDEQLKSGTASVVCLLNNFYPREAKVQWKVDNALQSGNSQESVTEQDSKDSTYSLSSTLTLSKADYEKHKVYACEVTHQGLSSPVTKSFNRGEC
notes: He Ab: the mutation stands only in the GpH7-B3-derived H chain; also called He Ab D270M
B2: GpH7-A5/GpH7-B3 variant D270_11K/GpL16-k0 (antibody, human IgG1, kappa)
heavy 1: not shown
heavy 2: not shown
light: B1 light
notes: He Ab: the mutation stands only in the GpH7-B3-derived H chain; also called He Ab D270K
B3: GpH7-A5/GpH7-B3 variant D270_13S/GpL16-k0 (antibody, human IgG1, kappa)
heavy 1: not shown
heavy 2: not shown
light: B1 light
notes: He Ab: the mutation stands only in the GpH7-B3-derived H chain; also called He Ab D270S
B4: GpH7-A5/GpH7-B3 variant Q295_01G/GpL16-k0 (antibody, human IgG1, kappa)
heavy 1: not shown
heavy 2: not shown
light: B1 light
notes: He Ab: the mutation stands only in the GpH7-B3-derived H chain; also called He Ab Q295G
B5: GpH7-A5/GpH7-B3 variant D270_07I/GpL16-k0 (antibody, human IgG1, kappa)
heavy 1: not shown
heavy 2: not shown
light: B1 light
notes: He Ab: the mutation stands only in the GpH7-B3-derived H chain; also called He Ab D270I
B6: GpH7-A5/GpH7-B3 variant D270_12R/GpL16-k0 (antibody, human IgG1, kappa)
heavy 1: not shown
heavy 2: not shown
light: B1 light
notes: He Ab: the mutation stands only in the GpH7-B3-derived H chain; also called He Ab D270R
B7: GpH7-A5/GpH7-B3 variant D270_15Y/GpL16-k0 (antibody, human IgG1, kappa)
heavy 1: not shown
heavy 2: not shown
light: B1 light
notes: He Ab: the mutation stands only in the GpH7-B3-derived H chain; also called He Ab D270Y
B8: GpH7-A5/GpH7-B3 variant D270_19Q/GpL16-k0 (antibody, human IgG1, kappa)
heavy 1: not shown
heavy 2: not shown
light: B1 light
notes: He Ab: the mutation stands only in the GpH7-B3-derived H chain; also called He Ab D270Q
B9: GpH7-A5/GpH7-B3 variant Q295_09D/GpL16-k0 (antibody, human IgG1, kappa)
heavy 1: not shown
heavy 2: not shown
light: B1 light
notes: He Ab: the mutation stands only in the GpH7-B3-derived H chain; also called He Ab Q295D
B10: GpH7-A5/GpH7-B3 variant D270_08L/GpL16-k0 (antibody, human IgG1, kappa)
heavy 1: not shown
heavy 2: not shown
light: B1 light
notes: He Ab: the mutation stands only in the GpH7-B3-derived H chain; also called He Ab D270L
B11: GpH7-A5/GpH7-B3 variant P271_20W/GpL16-k0 (antibody, human IgG1, kappa)
heavy 1: not shown
heavy 2: not shown
light: B1 light
notes: He Ab: the mutation stands only in the GpH7-B3-derived H chain; also called He Ab P271W
B12: GpH7-A5/GpH7-B3 variant E269_19Q/GpL16-k0 (antibody, human IgG1, kappa)
heavy 1: not shown
heavy 2: not shown
light: B1 light
notes: He Ab: the mutation stands only in the GpH7-B3-derived H chain; also called He Ab E269Q
B13: GpH7-A5/GpH7-B3 variant D270_10E/GpL16-k0 (antibody, human IgG1, kappa)
heavy 1: not shown
heavy 2: not shown
light: B1 light
notes: He Ab: the mutation stands only in the GpH7-B3-derived H chain; also called He Ab D270E
B14: GpH7-A5/GpH7-B3 variant D270_18N/GpL16-k0 (antibody, human IgG1, kappa)
heavy 1: not shown
heavy 2: not shown
light: B1 light
notes: He Ab: the mutation stands only in the GpH7-B3-derived H chain; also called He Ab D270N
B15: GpH7-A5/GpH7-B3 variant Q295_02A/GpL16-k0 (antibody, human IgG1, kappa)
heavy 1: not shown
heavy 2: not shown
light: B1 light
notes: He Ab: the mutation stands only in the GpH7-B3-derived H chain; also called He Ab Q295A
B16: GpH7-A5/GpH7-B3 variant V266_01G/GpL16-k0 (antibody, human IgG1, kappa)
heavy 1: not shown
heavy 2: not shown
light: B1 light
notes: Heterodimerized IgG1 (He Ab); mutation only in the GpH7-B3 chain; also called He Ab V266G
B17: GpH7-A5/GpH7-B3 variant V266_04F/GpL16-k0 (antibody, human IgG1, kappa)
heavy 1: not shown
heavy 2: not shown
light: B1 light
notes: Heterodimerized IgG1 (He Ab); mutation only in the GpH7-B3 chain; also called He Ab V266F
B18: GpH7-A5/GpH7-B3 variant V266_08L/GpL16-k0 (antibody, human IgG1, kappa)
heavy 1: not shown
heavy 2: not shown
light: B1 light
notes: Heterodimerized IgG1 (He Ab); mutation only in the GpH7-B3 chain; also called He Ab V266L
B19: GpH7-A5/GpH7-B3 variant S239_08L/GpL16-k0 (antibody, human IgG1, kappa)
heavy 1: not shown
heavy 2: not shown
light: B1 light
notes: Heterodimerized IgG1 (He Ab); mutation only in the GpH7-B3 chain; also called He Ab S239L
B20: GpH7-A5/GpH7-B3 variant S239_10E/GpL16-k0 (antibody, human IgG1, kappa)
heavy 1: not shown
heavy 2: not shown
light: B1 light
notes: Heterodimerized IgG1 (He Ab); mutation only in the GpH7-B3 chain; also called He Ab S239E
B21: GpH7-A5/GpH7-B3 variant S239_09D/GpL16-k0 (antibody, human IgG1, kappa)
heavy 1: not shown
heavy 2: not shown
light: B1 light
notes: Heterodimerized IgG1 (He Ab); mutation only in the GpH7-B3 chain; also called He Ab S239D
B22: GpH7-A5/GpH7-B3 variant S239_20W/GpL16-k0 (antibody, human IgG1, kappa)
heavy 1: not shown
heavy 2: not shown
light: B1 light
notes: Heterodimerized IgG1 (He Ab); mutation only in the GpH7-B3 chain; also called He Ab S239W
B23: GpH7-A5/GpH7-B3 variant V266_07I/GpL16-k0 (antibody, human IgG1, kappa)
heavy 1: not shown
heavy 2: not shown
light: B1 light
notes: Heterodimerized IgG1 (He Ab); mutation only in the GpH7-B3 chain; also called He Ab V266I
B24: GpH7-A5/GpH7-B3 variant V266_06M/GpL16-k0 (antibody, human IgG1, kappa)
heavy 1: not shown
heavy 2: not shown
light: B1 light
notes: Heterodimerized IgG1 (He Ab); mutation only in the GpH7-B3 chain; also called He Ab V266M
B25: GpH7-A5/GpH7-B3 variant S239_18N/GpL16-k0 (antibody, human IgG1, kappa)
heavy 1: not shown
heavy 2: not shown
light: B1 light
notes: Heterodimerized IgG1 (He Ab); mutation only in the GpH7-B3 chain; also called He Ab S239N
B26: GpH7-A5/GpH7-B3 variant S239_05P/GpL16-k0 (antibody, human IgG1, kappa)
heavy 1: not shown
heavy 2: not shown
light: B1 light
notes: Heterodimerized IgG1 (He Ab); mutation only in the GpH7-B3 chain; also called He Ab S239P

biological target: T4, FcγRIIIa extracellular domain with C-terminal His tag (human, UniProt P08637 17-208); experiment: SPR (Biacore), antibody captured via antigen peptide, FcγR as analyte; binding relative to GpH7-A5/GpH7-B3/GpL16-k0 = 100
T4 construct: extracellular domain; also called FcgRIIIa; 3a; not shown: His tag at the C terminus
T4 sequence (P08637 17-208): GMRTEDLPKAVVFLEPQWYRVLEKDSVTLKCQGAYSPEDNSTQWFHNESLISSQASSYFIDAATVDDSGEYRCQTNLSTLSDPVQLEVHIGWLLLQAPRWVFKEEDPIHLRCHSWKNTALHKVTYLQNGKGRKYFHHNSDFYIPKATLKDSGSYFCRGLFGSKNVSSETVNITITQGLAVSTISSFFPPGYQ

Row | Binder | He/Con_3a
1 | B1 | 66.3 relative (control = 100)
2 | B2 | 41 relative (control = 100)
3 | B3 | 56.7 relative (control = 100)
4 | B4 | 73 relative (control = 100)
5 | B5 | 69.6 relative (control = 100)
6 | B6 | 28.8 relative (control = 100)
7 | B7 | 54.5 relative (control = 100)
8 | B8 | 81.9 relative (control = 100)
9 | B9 | 81.5 relative (control = 100)
10 | B10 | 71.8 relative (control = 100)
11 | B11 | 74.1 relative (control = 100)
12 | B12 | 65 relative (control = 100)
13 | B13 | 123 relative (control = 100)
14 | B14 | 56.5 relative (control = 100)
15 | B15 | 106 relative (control = 100)

biological target: T1, FcγRIIb extracellular domain with …; experiment: as above

Row | Binder | He/Con_2b
16 | B1 | 48.2 relative (control = 100)
17 | B2 | 20.3 relative (control = 100)
18 | B3 | 44.2 relative (control = 100)
19 | B4 | 46 relative (control = 100)
20 | B5 | 41.5 relative (control = 100)
21 | B6 | 18.3 relative (control = 100)
22 | B7 | 44.9 relative (control = 100)
23 | B8 | 48 relative (control = 100)
24 | B9 | 60.8 relative (control = 100)
25 | B10 | 53.6 relative (control = 100)
26 | B11 | 58.1 relative (control = 100)
27 | B12 | 44.3 relative (control = 100)
28 | B13 | 76.5 relative (control = 100)
29 | B14 | 40.3 relative (control = 100)
30 | B15 | 79.7 relative (control = 100)

biological target: T2, FcγRIIb, extracellular domain with …; experiment: SPR (Biacore), antibody captured on antigen-peptide chip, FcγR as analyte; GpH7-A5/GpH7-B3/GpL16-k0 = 100
Description: (§1) The heterodimerized antibodies He Abs in which one of the H chains was introduced with an alteration were assayed for their binding activities to each activating FcγR and inhibitory FcγR according to the method described in Example 4. […] The activating FcγRs in FIGS. 26, 27, 28, and 29 are FcγRIa, FcγRIIa (R), FcγRIIa (H), and FcγRIIIa, respectively.
(§2) Analysis of interaction between objective antibody and the FcγR was carried out using Biacore T100 (GE Healthcare). HBS-EP+ (GE Healthcare) was used as the running buffer, and the measurement temperature was set to 25° C. Chips produced by immobilizing the antigen peptide by the amine coupling method to a Series S Sencor Chip CM5 (GE Healthcare), or alternatively, chips produced by allowing preliminarily biotinylated antigen peptides to interact with and immobilize onto a Series S Sensor Chip SA (certified) (GE Healthcare) were used. Antibodies of interest were captured onto an antigen peptide-immobilized chip, and allowed to interact to each FcγR diluted with running buffer. To regenerate and repeatedly use the chip, the antibodies captured on the chip were washed off by reacting 10 mM glycine-HCl, pH 1.5.

Row | Binder | He/Con_2b (relative binding activity)
31 | B16 | 51.5 % of control
32 | B17 | 57.6 % of control
33 | B18 | 236 % of control
34 | B19 | 140 % of control
35 | B20 | 181 % of control
36 | B21 | 206 % of control
37 | B22 | 45.1 % of control
38 | B23 | 152 % of control
39 | B24 | 251 % of control
40 | B25 | 119 % of control
41 | B26 | 102 % of control

biological target: T3, FcγRIIa H (FcγRIIa type H, His at …); experiment: as above
Description: as §1, §2

Row | Binder | He/Con_2aH (relative binding activity)
42 | B16 | 36.7 % of control
43 | B17 | 25.3 % of control
44 | B18 | 104 % of control
45 | B19 | 105 % of control
46 | B20 | 112 % of control
47 | B21 | 114 % of control
48 | B22 | 35.2 % of control
49 | B23 | 106 % of control
50 | B24 | 83.9 % of control
51 | B25 | 94.2 % of control
52 | B26 | 33.3 % of control

biological target: T3, FcγRIIa H (FcγRIIa type H, His at …); experiment: ratio of He/Con_2aH (FcγRIIa H) to He/Con_2b (FcγRIIb), SPR relative binding
Description: as §1, §2

Row | Binder | He_2aH/2b (IIaH/IIb ratio)
53 | B16 | 0.71
54 | B17 | 0.44
55 | B18 | 0.44
56 | B19 | 0.75
57 | B20 | 0.62
58 | B21 | 0.56
59 | B22 | 0.78
60 | B23 | 0.69
61 | B24 | 0.33
62 | B25 | 0.79
63 | B26 | 0.33

biological target: T4, FcγRIIIa extracellular domain with …; experiment: ratio of He/Con_3a to He/Con_2b (FcγRIIIa over FcγRIIb), SPR relative binding
Description: as §1, §2

Row | Binder | IIIa/IIb (He_3a/2b)
64 | B1 | 1.38
65 | B2 | 2.02
66 | B3 | 1.28
67 | B4 | 1.59
68 | B5 | 1.68
69 | B6 | 1.58
70 | B7 | 1.22
71 | B8 | 1.7
72 | B9 | 1.34
73 | B10 | 1.34
74 | B11 | 1.28
75 | B12 | 1.47
76 | B13 | 1.61
77 | B14 | 1.4
78 | B15 | 1.32
